In the supplement of paper PMC5998384:

Legend:
[1] = system: HeLa Kyoto; assay: melting temperature (median over replicates), in situ; higher = more thermally stable
[2] = system: HeLa Kyoto; assay: thermal stability score vs G1/S (z-score of summed log2 fold changes over temperatures); higher = more thermally stable than in G1/S
[3] = cell cycle stage: early G1 (4.5 h after nocodazole release)
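For melting temperature (median over replicates), in situ in this document: HeLa Kyoto cells synchronized by double thymidine or nocodazole block, proteins quantified by TMT10plex mass spectrometry, three independent biological replicates.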
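For thermal stability score vs G1/S (z-score of summed log2 fold changes over temperatures) in this document: synchronized HeLa Kyoto cells, proteins quantified by TMT10plex mass spectrometry, three biological replicates, mitosis taken 0.5 h after nocodazole release, G1/S directly after double thymidine block.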

Sequence	melting temperature ([1]; cell cycle stage: mitosis) [°C]	thermal stability score [2, 3]	thermal stability score ([2]; cell cycle stage: mitosis)	melting temperature ([1]; cell cycle stage: G1/S) [°C]
MAALGGDGLRLLSVSRPERPPESAALGGLGPGLCCWVSVFSCLSLACSYVGSLYVWKSELPRDHPAVIKRRFTSVLVVSSLSPLCVLLWRELTGIQPGTSLLTLMGFRLEGIFPAALLPLLLTMILFLGPLMQLSMDCPCDLADGLKVVLAPRSWARCLTDMRWLRNQVIAPLTEELVFRACMLPMLAPCMGLGPAVFTCPLFFGVAHFHHIIEQLRFRQSSVGNIFLSAAFQFSYTAVFGAYTAFLFIRTGHLIGPVLCHSFCNYMGFPAVCAALEHPQRRPLLAGYALGVGLFLLLLQPLTDPKLYGSLPLCVLLERAGDSEAPLCS [RCE1]	55.3	-0.209	-0.247	
MESALAVPRLPPHDPGTPVLSVVDMHTGGEPLRIVLAGCPEVSGPTLLAKRRYMRQHLDHVRRRLMFEPRGHRDMYGAVLVPSELPDAHLGVLFLHNEGYSSMCGHAVLALGRFALDFGLVPAPPAGTREARVNIHCPCGLVTAFVACEDGRSHGPVRFHSVPAFVLATDLMVDVPGHGKVMVDIAYGGAFYAFVTAEKLGLDICSAKTRDLVDAASAVTEAVKAQFKINHPDSEDLAFLYGTILTDGKDAYTKEPTTNICVFADEQVDRSPTGSGVTARIALQYHKGLLELNQMRAFKSSATGSVFTGKAVREAKCGDFKAVIVEVSGQAHYTGTASFIIEDDDPLRDGFLLK [L3HYPDH]	54.4	0.886	0.62	55.6
METDLNSQDRKDLDKFIKFFALKTVQVIVQARLGEKICTRSSSSPTGSDWFNLAIKDIPEVTHEAKKALAGQLPAVGRSMCVEISLKTSEGDSMELEIWCLEMNEKCDKEIKVSYTVYNRLSLLLKSLLAITRVTPAYRLSRKQGHEYVILYRIYFGEVQLSGLGEGFQTVRVGTVGTPVGTITLSCAYRINLAFMSTRQFERTPPIMGIIIDHFVDRPYPSSSPMHPCNYRTAGEDTGVIYPSVEDSQEVCTTSFSTSPPSQLSSSRLSYQPAALGVGSADLAYPVVFAAGLNATHPHQLMVPGKEGGVPLAPNQPVHGTQADQERLATCTPSDRTHCAATPSSSEDTETVSNSSEGRASPHDVLETIFVRKVGAFVNKPINQVTLTSLDIPFAMFAPKNLELEDTDPMVNPPDSPETESPLQGSLHSDGSSGGSSGNTHDDFVMIDFKPAFSKDDILPMDLGTFYREFQNPPQLSSLSIDIGAQSMAEDLDSLPEKLAVHEKNVREFDAFVETLQ [ATG13]	52.2	0.178	-1.05	51.7
MANAEVSVPVGDVVVVPTEGNEGENPEDTKTQVILQLQPVQQGLFIDGHFYNRIYEAGSENNTAVVAVETHTIHKIEEGIDTGTIEANEDMEIAYPITCGESKAILLWKKFVCPGINVKCVKFNDQLISPKHFVHLAGKSTLKDWKRAIRLGGIMLRKMMDSGQIDFYQHDKVCSNTCRSTKFDLLISSARAPVPGQQTSVVQTPTSADGSITQIAISEESMEEAGLEWNSALTAAVTMATEEGVKKDSEEISEDTLMFWKGIADVGLMEEVVCNIQKEIEELLRGVQQRLIQAPFQVTDAAVLNNVAHTFGLMDTVKKVLDNRRNQVEQGEEQFLYTLTDLERQLEEQKKQGQDHRLKSQTVQNVVLMPVSTPKPPKRPRLQRPASTTVLSPSPPVQQPQFTVISPITITPVGQSFSMGNIPVATLSQGSSPVTVHTLPSGPQLFRYATVVSSAKSSSPDTVTIHPSSSLALLSSTAMQDGSTLGNMTTMVSPVELVAMESGLTSAIQAVESTSEDGQTIIEIDPAPDPEAEDTEGKAVILETELRTEEKVVAEMEEHQHQVHNVEIVVLED [GMEB1]		0.789	2.68	49
MGRSRSRSPRRERRRSRSTSRERERRRRERSRSRERDRRRSRSRSPHRRRSRSPRRHRSTSPSPSRLKERRDEEKKETKETKSKERQITEEDLEGKTEEEIEMMKLMGFASFDSTKGKKVDGSVNAYAINVSQKRKYRQYMNRKGGFNRPLDFIA [SNRNP27]	53.3	1.03	0.903	54
MREIVHLQAGQCGNQIGAKFWEVISDEHGIDPTGTYHGDSDLQLERINVYYNEATGGKYVPRAVLVDLEPGTMDSVRSGPFGQIFRPDNFVFGQSGAGNNWAKGHYTEGAELVDSVLDVVRKEAESCDCLQGFQLTHSLGGGTGSGMGTLLISKIREEYPDRIMNTFSVVPSPKVSDTVVEPYNATLSVHQLVENTDETYCIDNEALYDICFRTLKLTTPTYGDLNHLVSATMSGVTTCLRFPGQLNADLRKLAVNMVPFPRLHFFMPGFAPLTSRGSQQYRALTVPELTQQMFDAKNMMAACDPRHGRYLTVAAVFRGRMSMKEVDEQMLNVQNKNSSYFVEWIPNNVKTAVCDIPPRGLKMSATFIGNSTAIQELFKRISEQFTAMFRRKAFLHWYTGEGMDEMEFTEAESNMNDLVSEYQQYQDATAEEEGEFEEEAEEEVA [TUBB4B]	54.4	0.304	-1.31	
MLKPALEPRGGFSFENCQRNASLERVLPGLKVPHARKTGTTIAGLVFQDGVILGADTRATNDSVVADKSCEKIHFIAPKIYCCGAGVAADAEMTTRMVASKMELHALSTGREPRVATVTRILRQTLFRYQGHVGASLIVGGVDLTGPQLYGVHPHGSYSRLPFTALGSGQDAALAVLEDRFQPNMTLEAAQGLLVEAVTAGILGDLGSGGNVDACVITKTGAKLLRTLSSPTEPVKRSGRYHFVPGTTAVLTQTVKPLTLELVEETVQAMEVE [PSMB10]	52.6	0.227	0.56	53.3
MIKAILIFNNHGKPRLSKFYQPYSEDTQQQIIRETFHLVSKRDENVCNFLEGGLLIGGSDNKLIYRHYATLYFVFCVDSSESELGILDLIQVFVETLDKCFENVCELDLIFHVDKVHNILAEMVMGGMVLETNMNEIVTQIDAQNKLEKSEAGLAGAPARAVSAVKNMNLPEIPRNINIGDISIKVPNLPSFK [AP3S1]	51.2	-0.187	-0.378	50.8
MEVVEAAAAQLETLKFNGTDFGVGEGPAAPSPGSAPVPGTQPPLQSFEGSPDAGQTVEVKPAGEQPLQPVLNAVAAGTPAPQPQPPAESPACGDCVTSPGAAEPARAPDSLETSDSDSDSDSETDSDSSSSSSSSSSSSSSSSSSCISLPPVLSDGDDDLQIEKENKNFPLKTKDELLLNELPSVEELTIILPEDIELKPLGMVSSIIEQLVIIESMTNLPPVNEETVIFKSDRQAAGKIFEIFGPVAHPFYVLRFNSSDHIESKGIKIKETMYFAPSMKDFTQYIFTEKLKQDKGSDASWKNDQEPPPEALDFSDDEKEKEAKQRKKSQIQGRKKLKSEFNEPGEDFTEVHQNWNAHSSASEHAKGYRNREFTRGFSRARYPRSCHGRPPPQHFYNSEHMVSQETSGFPSQRQNNPIMPQYPFPLPVFDMHNFPLRPPPPPPPPPVNMGWATPNMAAHPLLNLPYSLPPPPPPPPLPPPPSSGDSNSHFGPYY [NAF1]	52.1	0.0445	-1.83	52
MGAALGTGTRLAPWPGRACGALPRWTPTAPAQGCHSKPGPARPVPLKKRGYDVTRNPHLNKGMAFTLEERLQLGIHGLIPPCFLSQDVQLLRIMRYYERQQSDLDKYIILMTLQDRNEKLFYRVLTSDVEKFMPIVYTPTVGLACQHYGLTFRRPRGLFITIHDKGHLATMLNSWPEDNIKAVVVTDGERILGLGDLGCYGMGIPVGKLALYTACGGVNPQQCLPVLLDVGTNNEELLRDPLYIGLKHQRVHGKAYDDLLDEFMQAVTDKFGINCLIQFEDFANANAFRLLNKYRNKYCMFNDDIQGTASVAVAGILAALRITKNKLSNHVFVFQGAGEAAMGIAHLLVMALEKEGVPKAEATRKIWMVDSKGLIVKGRSHLNHEKEMFAQDHPEVNSLEEVVRLVKPTAIIGVAAIAGAFTEQILRDMASFHERPIIFALSNPTSKAECTAEKCYRVTEGRGIFASGSPFKSVTLEDGKTFIPGQGNNAYVFPGVALGVIAGGIRHIPDEIFLLTAEQIAQEVSEQHLSQGRLYPPLSTIRDVSLRIAIKVLDYAYKHNLASYYPEPKDKEAFVRSLVYTPDYDSFTLDSYTWPKEAMNVQTV [ME3]		-5.4	-4.14	
MDDSGELGGLETMETLTELGDELTLGDIDEMLQFVSNQVGEFPDLFSEQLCSSFPGSGGSGSSSGSSGSSSSSSNGRGSSSGAVDPSVQRSFTQVTLPSFSPSAASPQAPTLQVKVSPTSVPTTPRATPILQPRPQPQPQPQTQLQQQTVMITPTFSTTPQTRIIQQPLIYQNAATSFQVLQPQVQSLVTSSQVQPVTIQQQVQTVQAQRVLTQTANGTLQTLAPATVQTVAAPQVQQVPVLVQPQIIKTDSLVLTTLKTDGSPVMAAVQNPALTALTTPIQTAALQVPTLVGSSGTILTTMPVMMGQEKVPIKQVPGGVKQLEPPKEGERRTTHNIIEKRYRSSINDKIIELKDLVMGTDAKMHKSGVLRKAIDYIKYLQQVNHKLRQENMVLKLANQKNKLLKGIDLGSLVDNEVDLKIEDFNQNVLLMSPPASDSGSQAGFSPYSIDSEPGSPLLDDAKVKDEPDSPPVALGMVDRSRILLCVLTFLCLSFNPLTSLLQWGGAHDSDQHPHSGSGRSVLSFESGSGGWFDWMMPTLLLWLVNGVIVLSVFVKLLVHGEPVIRPHSRSSVTFWRHRKQADLDLARGDFAAAAGNLQTCLAVLGRALPTSRLDLACSLSWNVIRYSLQKLRLVRWLLKKVFQCRRATPATEAGFEDEAKTSARDAALAYHRLHQLHITGKLPAGSACSDVHMALCAVNLAECAEEKIPPSTLVEIHLTAAMGLKTRCGGKLGFLASYFLSRAQSLCGPEHSAVPDSLRWLCHPLGQKFFMERSWSVKSAAKESLYCAQRNPADPIAQVHQAFCKNLLERAIESLVKPQAKKKAGDQEEESCEFSSALEYLKLLHSFVDSVGVMSPPLSRSSVLKSALGPDIICRWWTSAITVAISWLQGDDAAVRSHFTKVERIPKALEVTESPLVKAIFHACRAMHASLPGKADGQQSSFCHCERASGHLWSSLNVSGATSDPALNHVVQLLTCDLLLSLRTALWQKQASASQAVGETYHASGAELAGFQRDLGSLRRLAHSFRPAYRKVFLHEATVRLMAGASPTRTHQLLEHSLRRRTTQSTKHGEVDAWPGQRERATAILLACRHLPLSFLSSPGQRAVLLAEAARTLEKVGDRRSCNDCQQMIVKLGGGTAIAAS [SREBF2]		7.8e-18	1.52e-16	
MSGGDTRAAIARPRMAAAHGPVAPSSPEQVTLLPVQRSFFLPPFSGATPSTSLAESVLKVWHGAYNSGLLPQLMAQHSLAMAQNGAVPSEATKRDQNLKRGNWGNQIEFVLTSVGYAVGLGNVWRFPYLCYRNGGGAFMFPYFIMLIFCGIPLFFMELSFGQFASQGCLGVWRISPMFKGVGYGMMVVSTYIGIYYNVVICIAFYYFFSSMTHVLPWAYCNNPWNTHDCAGVLDASNLTNGSRPAALPSNLSHLLNHSLQRTSPSEEYWRLYVLKLSDDIGNFGEVRLPLLGCLGVSWLVVFLCLIRGVKSSGKVVYFTATFPYVVLTILFVRGVTLEGAFDGIMYYLTPQWDKILEAKVWGDAASQIFYSLGCAWGGLITMASYNKFHNNCYRDSVIISITNCATSVYAGFVIFSILGFMANHLGVDVSRVADHGPGLAFVAYPEALTLLPISPLWSLLFFFMLILLGLGTQFCLLETLVTAIVDEVGNEWILQKKTYVTLGVAVAGFLLGIPLTSQAGIYWLLLMDNYAASFSLVVISCIMCVAIMYIYGHRNYFQDIQMMLGFPPPLFFQICWRFVSPAIIFFILVFTVIQYQPITYNHYQYPGWAVAIGFLMALSSVLCIPLYAMFRLCRTDGDTLLQRLKNATKPSRDWGPALLEHRTGRYAPTIAPSPEDGFEVQPLHPDKAQIPIVGSNGSSRLQDSRI [SLC6A9]		-0.03	1.01	
